As usually defined, the Kd is a measure of binding affinity in units of concentration. A low value points to higher affinity. Broadly, the koff is the rate constant with which the complex falls apart. A lower koff goes with a long-lived complex. The kon is the second-order rate constant of association. Low readings indicate slower complex formation, high ones faster complex formation.

Where a chain is given by its changes, count along the chain named. In names and notes the source's numbering stands.

The chains are these.
T1: Human CD112R (PVRIG) (human, UniProt Q6DKI7 41-171, limits assumed)
T1 sequence (looked up): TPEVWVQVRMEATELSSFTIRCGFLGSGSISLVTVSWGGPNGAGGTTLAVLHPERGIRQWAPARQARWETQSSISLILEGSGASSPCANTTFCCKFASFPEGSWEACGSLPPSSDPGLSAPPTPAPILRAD

B1: VH9K2 (antibody, V domains shown)
VH: QVQLVQSGAEVKKPGSSVKVSCKASGYTFTSYWINWVKLAPGQGLEWIGDIYPGSYIPNYNEKFKNRATLTVDTSASTAYMELSSLRSEDTAVYYCAGGYFDVWGQGTTVTVSS
VL: DIVMTQSPDSLAVSLGERATINCKSSQSLLSSGNQKNYLAWYQQKPGQPPKLLIYGASTRESGVPDRFTGSGSGTDFTLTISSLQAEDVAVYYCQNDHSYPYTFGQGTKLEIK
B2: VH9K0 (antibody, V domains shown)
VH: B1 VH
VL: B1 VL with D9S, A12S, L15A, R18K, A19V, I21M, N22S, L84V, V89L, Q106G
B3: VH0K3 N28T (antibody, V domains shown)
VH: QVQLQQPGAELVKPGTSVKLSCKASGYTFTSYWINWVKLRPGQGLEWIGDIYPGSYIPNYNEKFKNKATLTVDTSSSTAYMQLTSLASEDSALYYCAGGYFDVWGAGTTVTVSS
VL: B1 VL with T69S
B4: VH0K1 N28T (antibody, V domains shown)
VH: B3 VH
VL: B1 VL with A12S
B5: VH11K0 (antibody, V domains shown)
VH: B1 VH with K38R, L39Q
VL: B1 VL with D9S, A12S, L15A, R18K, A19V, I21M, N22S, L84V, V89L, Q106G
B6: VH10K1 (antibody, V domains shown)
VH: B1 VH with K38R, L39Q, R87A, V93L
VL: B1 VL with A12S
B7: VH10K0 (antibody, V domains shown)
VH: B1 VH with K38R, L39Q, R87A, V93L
VL: B1 VL with D9S, A12S, L15A, R18K, A19V, I21M, N22S, L84V, V89L, Q106G
B8: VH0K2 N28T (antibody, V domains shown)
VH: B3 VH
VL: B1 VL
B9: VH0 N28T Vk0 (antibody, V domains shown)
VH: B3 VH
VL: B1 VL with D9S, A12S, L15A, R18K, A19V, I21M, N22S, L84V, V89L, Q106G
notes: Variant of VH0K0; also called VH0K0 N28T
B10: VH9K3 (antibody, V domains shown)
VH: B1 VH
VL: B1 VL with T69S
B11: VH9K1 (antibody, V domains shown)
VH: B1 VH
VL: B1 VL with A12S
B12: VH0K0 as tested in Table 4 (scFv of VH0K0) (scFv, V domains shown)
VH: B3 VH with T28N
VL: B1 VL with D9S, A12S, L15A, R18K, A19V, I21M, N22S, L84V, V89L, Q106G
B13: VH11K2 as tested in Table 4 (humanized scFv variant) (scFv, V domains shown)
VH: B1 VH with K38R, L39Q
VL: B1 VL
notes: Format as for m33
B14: VH11K1 as tested in Table 4 (humanized scFv variant) (scFv, V domains shown)
VH: B1 VH with K38R, L39Q
VL: B1 VL with A12S
notes: Format as for m33
B15: VH10K2 as tested in Table 4 (humanized scFv variant) (scFv, V domains shown)
VH: B1 VH with K38R, L39Q, R87A, V93L
VL: B1 VL
B16: VH10K3 as tested in Table 4 (humanized scFv variant) (scFv, V domains shown)
VH: B1 VH with K38R, L39Q, R87A, V93L
VL: B1 VL with T69S
notes: Format as for m33
B17: VH11K3 as tested in Table 4 (humanized scFv variant) (scFv, V domains shown)
VH: B1 VH with K38R, L39Q
VL: B1 VL with T69S
notes: Format as for m33
B18: VH0 N28A Vk0 (antibody, human IgG1, V domains shown)
VH: B3 VH with T28A
VL: B1 VL with D9S, A12S, L15A, R18K, A19V, I21M, N22S, L84V, V89L, Q106G
notes: Variant of VH0K0
B19: VH0 N28S Vk0 (antibody, human IgG1, V domains shown)
VH: B3 VH with T28S
VL: B1 VL with D9S, A12S, L15A, R18K, A19V, I21M, N22S, L84V, V89L, Q106G
notes: Variant of VH0K0
B20: VH0 N28D Vk0 (antibody, human IgG1, V domains shown)
VH: B3 VH with T28D
VL: B1 VL with D9S, A12S, L15A, R18K, A19V, I21M, N22S, L84V, V89L, Q106G
notes: Variant of VH0K0 without the N-linked glycosylation motif of heavy chain CDR1
B21: VH0 T30A Vk0 (antibody, human IgG1, V domains shown)
VH: B3 VH with T28N, T30A
VL: B1 VL with D9S, A12S, L15A, R18K, A19V, I21M, N22S, L84V, V89L, Q106G
notes: Variant of VH0K0
B22: VH0 N28Q Vk0 (antibody, human IgG1, V domains shown)
VH: B3 VH with T28Q
VL: B1 VL with D9S, A12S, L15A, R18K, A19V, I21M, N22S, L84V, V89L, Q106G
notes: Variant of VH0K0

The target of one assay is T1, Human CD112R (PVRIG). The assay is described as follows: SPR (Biacore); purified full antibody; * limit of the Biacore instrument sensitivity.
Consider B1, for which the equilibrium dissociation constant (Kd) came out at 43.2 pM, the “Relative Kd (against VH0K0 N28T)” value is 0.34, the off-rate constant (koff) came to 1.3e-05 s⁻¹ and the kon came to 301000 M⁻¹ s⁻¹.

With B2, the Kd was found to be 10.3 pM, the “Relative Kd (against VH0K0 N28T)” value came out at 0.08, the koff was found to be 3.09e-06 s⁻¹ and the on-rate constant (kon) was 300000 M⁻¹ s⁻¹.

For B3, the dissociation constant (Kd) turned out to be 32.1 pM, the “Relative Kd (against VH0K0 N28T)” value came to 0.25, the off-rate constant (koff) amounted to 1.06e-05 s⁻¹ and the kon amounted to 330000 M⁻¹ s⁻¹.

On to B4, for which the affinity, expressed as Kd, was 25.9 pM; the “Relative Kd (against VH0K0 N28T)” value was 0.21; the off-rate constant (koff) turned out to be 8.3e-06 s⁻¹; the kon is 320000 M⁻¹ s⁻¹.

The target in the next assay is T1, Human CD112R (PVRIG). Briefly: SPR (Biacore); purified full antibody. For orientation: SPR reads the build-up and loss of mass on a sensor chip optically.
Take B5: binding was put at a Kd of 101 pM, the “Relative Kd (against VH0K0 N28T)” value is 0.8, the koff worked out at 3.19e-05 s⁻¹ and the association rate constant (kon) turned out to be 316000 M⁻¹ s⁻¹.

As for B6, binding was characterised by a dissociation constant (Kd) of 119 pM, the “Relative Kd (against VH0K0 N28T)” value came out at 0.94, the off-rate constant (koff) is 4.18e-05 s⁻¹ and the association rate constant (kon) was determined as 351000 M⁻¹ s⁻¹.

Regarding B7, the Kd was found to be 135 pM, the “Relative Kd (against VH0K0 N28T)” value worked out at 1.07, the off-rate (koff) was determined as 4.66e-05 s⁻¹ and the on-rate constant (kon) came to 345000 M⁻¹ s⁻¹.

B8: the dissociation constant (Kd) stood at 109 pM, the “Relative Kd (against VH0K0 N28T)” value was found to be 0.87, the koff was 4.34e-05 s⁻¹ and the association rate constant (kon) was 398000 M⁻¹ s⁻¹.

Consider B9, for which the affinity, expressed as Kd, was 126 pM; the “Relative Kd (against VH0K0 N28T)” value was found to be 1; the off-rate (koff) stood at 5.02e-05 s⁻¹; the kon came out at 400000 M⁻¹ s⁻¹.

With B10, the dissociation constant (Kd) was approximately 154 pM, the “Relative Kd (against VH0K0 N28T)” value was determined as 1.22, the koff was found to be 1.06e-05 s⁻¹ and the on-rate constant (kon) came out at 330000 M⁻¹ s⁻¹.

Regarding B11, binding was put at a Kd of 111 pM, the “Relative Kd (against VH0K0 N28T)” value was 0.87, the off-rate constant (koff) came to 3.87e-05 s⁻¹ and the kon is 350000 M⁻¹ s⁻¹.

The target in the next assay is T1, Human CD112R (PVRIG). The assay is described as follows: binding kinetics to human CD112R (Table 4; scFv variants by paragraph 288).
As for B12, the equilibrium dissociation constant (Kd) was 307 pM, the “Relative Kd (against VH0K0)” value turned out to be 1, the koff worked out at 8.89e-05 s⁻¹ and the kon amounted to 290000 M⁻¹ s⁻¹.

Turning to B13, the affinity, expressed as Kd, was 191 pM; the “Relative Kd (against VH0K0)” value amounted to 0.62; the koff amounted to 0.000105 s⁻¹; the on-rate (kon) came to 552000 M⁻¹ s⁻¹.

Take B14: binding was put at a Kd of 165 pM, the “Relative Kd (against VH0K0)” value was determined as 0.54, the koff was 0.000101 s⁻¹ and the kon was found to be 630000 M⁻¹ s⁻¹.

Turning to B15, the equilibrium dissociation constant (Kd) was 214 pM, the “Relative Kd (against VH0K0)” value came out at 0.7, the off-rate constant (koff) turned out to be 0.000133 s⁻¹ and the association rate constant (kon) worked out at 623000 M⁻¹ s⁻¹.

On to B16, for which the Kd amounted to 197 pM, the “Relative Kd (against VH0K0)” value is 0.64, the dissociation rate constant (koff) amounted to 0.000107 s⁻¹ and the kon worked out at 545000 M⁻¹ s⁻¹.

Take B17: binding was put at a Kd of 190 pM, the “Relative Kd (against VH0K0)” value was found to be 0.62, the off-rate constant (koff) was determined as 0.000101 s⁻¹ and the kon was 530000 M⁻¹ s⁻¹.

The target of the next assay is T1, Human CD112R (PVRIG). The assay is described as follows: affinity of glycosylation-motif variants (Table 2; method not named there).
As to B18, the Kd stood at 150 pM and the “Relative Kd (against VH0Vk0)” value was 0.9.

For the molecule B19, the affinity, expressed as Kd, was 116 pM and the “Relative Kd (against VH0Vk0)” value came to 0.66.

Turning to B20, the Kd amounted to 122 pM and the “Relative Kd (against VH0Vk0)” value worked out at 0.73.

For the molecule B9, the Kd turned out to be 102 pM and the “Relative Kd (against VH0Vk0)” value was 0.61.

In the case of B21, the equilibrium dissociation constant (Kd) was 106 pM and the “Relative Kd (against VH0Vk0)” value was found to be 0.63.

For the molecule B22, the affinity, expressed as Kd, was 116 pM and the “Relative Kd (against VH0Vk0)” value amounted to 0.69.

Values taken from US20240270840A1 (NECTIN THERAPEUTICS, published 2024).
